Publication PMC4369838

Target: Synthetic Aβ(1–42), prepared as amyloid-beta-derived diffusible ligands (ADDLs) (human)
Test: SEC; analytical SEC of the ADDL preparation (Superdex 75 5/150, PBS, pH 7.4); oligomer peak area divided by oligomer plus monomer peak area; three separate experiments

- percent of total Aβ in species larger than monomers: 47%
Substance: Synthetic Aβ(1–42), prepared as amyloid-beta-derived diffusible ligands (ADDLs) (peptide)
